# T1: CARD11, Q9BXL7
# T1 sequence (Q9BXL7 662-765, limits assumed, looked up): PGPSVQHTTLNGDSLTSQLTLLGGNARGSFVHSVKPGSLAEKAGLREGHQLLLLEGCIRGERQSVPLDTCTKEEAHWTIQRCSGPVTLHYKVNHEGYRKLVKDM
# T2: SNTA1, Q13424
# T2 sequence (Q13424 82-180, limits assumed, looked up): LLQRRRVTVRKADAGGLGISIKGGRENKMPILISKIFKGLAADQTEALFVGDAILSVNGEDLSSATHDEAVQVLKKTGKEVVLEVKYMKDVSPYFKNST
# T3: LNX2_3, Q8N448
# T3 sequence (Q8N448 463-564, limits assumed, looked up): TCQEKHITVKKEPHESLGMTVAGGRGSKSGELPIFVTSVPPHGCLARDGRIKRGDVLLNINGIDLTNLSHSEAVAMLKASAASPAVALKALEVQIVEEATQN
# T4: MPDZ_10, O75970
# T4 sequence (O75970 1624-1722, limits assumed, looked up): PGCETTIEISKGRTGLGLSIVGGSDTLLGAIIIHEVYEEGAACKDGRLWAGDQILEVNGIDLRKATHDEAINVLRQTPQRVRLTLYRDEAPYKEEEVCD
# T5: ARHGEF11, O15085
# T5 sequence (O15085 42-136, limits assumed, looked up): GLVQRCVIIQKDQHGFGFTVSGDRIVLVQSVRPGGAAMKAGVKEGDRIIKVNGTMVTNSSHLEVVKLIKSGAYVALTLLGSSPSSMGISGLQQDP
# T6: DFNB31_3, Q9P202
# T6 sequence (Q9P202 811-907, limits assumed, looked up): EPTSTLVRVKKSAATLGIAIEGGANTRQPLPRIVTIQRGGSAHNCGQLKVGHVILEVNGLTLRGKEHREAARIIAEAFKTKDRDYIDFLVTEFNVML
# T7: GRIP1_5, Q9Y3R0
# T7 sequence (Q9Y3R0 568-668, limits assumed, looked up): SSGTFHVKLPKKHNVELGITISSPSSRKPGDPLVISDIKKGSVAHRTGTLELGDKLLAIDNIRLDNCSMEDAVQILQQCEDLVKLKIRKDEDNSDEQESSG
# T8: RADIL, Q96JH8
# T8 sequence (Q96JH8 971-1071, limits assumed, looked up): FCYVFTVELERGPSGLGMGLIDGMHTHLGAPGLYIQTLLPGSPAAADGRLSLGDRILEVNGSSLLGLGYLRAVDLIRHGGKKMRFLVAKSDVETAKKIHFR
# T9: NHERF3_1, Q5T2W1
# T9 sequence (Q5T2W1 4-100, limits assumed, looked up): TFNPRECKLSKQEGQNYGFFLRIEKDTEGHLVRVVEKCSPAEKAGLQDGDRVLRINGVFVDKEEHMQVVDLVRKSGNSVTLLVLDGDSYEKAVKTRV
# T10: GRIP1_3, Q9Y3R0
# T10 sequence (Q9Y3R0 247-346, limits assumed, looked up): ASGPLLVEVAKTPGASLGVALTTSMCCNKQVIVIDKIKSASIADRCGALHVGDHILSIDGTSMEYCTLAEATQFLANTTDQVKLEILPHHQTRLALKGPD
# Legend:
# Assay in all cases: holdup assay
# Set-up in all cases: key: below the threshold = too weak to quantify, mostly under pKd 3.1 to 4
# Conditions in all cases: plain residues with an end cap or a label only (N-terminal biotin on a linker: ado-ado)
# MAGI2_2, Q86UL8 = biological target: MAGI2_2, Q86UL8
# DLG1_2, Q12959 = biological target: DLG1_2, Q12959
# PTPN3, P26045 = biological target: PTPN3, P26045
# MAGI2_6, Q86UL8 = biological target: MAGI2_6, Q86UL8
# CARD11, Q9BXL7 = biological target: T1, CARD11, Q9BXL7
# SNTA1, Q13424 = biological target: T2, SNTA1, Q13424
# LNX2_3, Q8N448 = biological target: T3, LNX2_3, Q8N448
# MPDZ_10, O75970 = biological target: T4, MPDZ_10, O75970
# GRIP2_5, Q9C0E4 = biological target: GRIP2_5, Q9C0E4
# ARHGEF11, O15085 = biological target: T5, ARHGEF11, O15085
# SCRIB_3, Q14160 = biological target: SCRIB_3, Q14160
# DFNB31_3, Q9P202 = biological target: T6, DFNB31_3, Q9P202
# HTRA2, O43464 = biological target: HTRA2, O43464
# DLG2_3, Q15700 = biological target: DLG2_3, Q15700
# Inadl_4, Q8NI35 = biological target: Inadl_4, Q8NI35
# GORASP1, Q9BQQ3 = biological target: GORASP1, Q9BQQ3
# GRIP1_5, Q9Y3R0 = biological target: T7, GRIP1_5, Q9Y3R0
# Inadl_1, Q8NI35 = biological target: Inadl_1, Q8NI35
# MAGI2_5, Q86UL8 = biological target: MAGI2_5, Q86UL8
# MAGI3_2, Q5TCQ9 = biological target: MAGI3_2, Q5TCQ9
# DLG1_3, Q12959 = biological target: DLG1_3, Q12959
# FRMPD2_2, Q68DX3 = biological target: FRMPD2_2, Q68DX3
# RADIL, Q96JH8 = biological target: T8, RADIL, Q96JH8
# NHERF3_1, Q5T2W1 = biological target: T9, NHERF3_1, Q5T2W1
# GRIP1_3, Q9Y3R0 = biological target: T10, GRIP1_3, Q9Y3R0
# GRIP2_3, Q9C0E4 = biological target: GRIP2_3, Q9C0E4
# NHERF4_2, Q86UT5 = biological target: NHERF4_2, Q86UT5
# NHERF4_2, Q86UT5, sequence (Q86UT5 220-308): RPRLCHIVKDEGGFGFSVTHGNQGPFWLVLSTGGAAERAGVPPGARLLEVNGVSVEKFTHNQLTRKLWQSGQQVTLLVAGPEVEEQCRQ
# Inadl_4, Q8NI35, sequence (Q8NI35 547-651): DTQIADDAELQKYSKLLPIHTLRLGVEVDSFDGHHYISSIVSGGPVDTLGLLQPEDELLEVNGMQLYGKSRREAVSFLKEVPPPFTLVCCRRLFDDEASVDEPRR
# MAGI2_2, Q86UL8, sequence (Q86UL8 410-522): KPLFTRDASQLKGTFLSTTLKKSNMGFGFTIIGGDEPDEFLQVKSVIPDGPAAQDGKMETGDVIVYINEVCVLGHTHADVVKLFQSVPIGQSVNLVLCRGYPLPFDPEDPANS
# SCRIB_3, Q14160, sequence (Q14160 999-1103): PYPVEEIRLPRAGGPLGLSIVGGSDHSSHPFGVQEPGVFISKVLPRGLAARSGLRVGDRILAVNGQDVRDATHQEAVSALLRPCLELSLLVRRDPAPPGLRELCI
# MAGI3_2, Q5TCQ9, sequence (Q5TCQ9 398-503): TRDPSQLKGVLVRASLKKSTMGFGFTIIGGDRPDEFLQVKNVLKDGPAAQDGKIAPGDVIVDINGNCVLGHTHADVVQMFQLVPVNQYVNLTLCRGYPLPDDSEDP
# DLG1_2, Q12959, sequence (Q12959 314-412): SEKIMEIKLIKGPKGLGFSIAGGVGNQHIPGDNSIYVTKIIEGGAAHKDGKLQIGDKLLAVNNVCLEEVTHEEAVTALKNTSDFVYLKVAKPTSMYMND
# Inadl_1, Q8NI35, sequence (Q8NI35 113-229): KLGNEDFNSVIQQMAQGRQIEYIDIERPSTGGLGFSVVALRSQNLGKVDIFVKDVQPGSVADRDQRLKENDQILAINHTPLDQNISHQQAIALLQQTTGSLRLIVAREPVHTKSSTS
# MAGI2_6, Q86UL8, sequence (Q86UL8 1141-1229): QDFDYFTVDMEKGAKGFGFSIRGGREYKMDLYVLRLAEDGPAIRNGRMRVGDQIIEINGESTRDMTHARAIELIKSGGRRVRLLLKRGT
# FRMPD2_2, Q68DX3, sequence (Q68DX3 944-1038): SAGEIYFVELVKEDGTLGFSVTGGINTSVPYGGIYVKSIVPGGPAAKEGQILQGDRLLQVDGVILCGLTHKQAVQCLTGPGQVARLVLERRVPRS
# GRIP2_3, Q9C0E4, sequence (Q9C0E4 238-339): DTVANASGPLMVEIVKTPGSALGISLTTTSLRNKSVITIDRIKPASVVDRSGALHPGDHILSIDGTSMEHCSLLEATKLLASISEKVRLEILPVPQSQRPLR
# MAGI2_5, Q86UL8, sequence (Q86UL8 915-1017): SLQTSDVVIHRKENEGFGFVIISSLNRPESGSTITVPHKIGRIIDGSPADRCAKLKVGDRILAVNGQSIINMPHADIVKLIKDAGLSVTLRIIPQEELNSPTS
# DLG1_3, Q12959, sequence (Q12959 457-571): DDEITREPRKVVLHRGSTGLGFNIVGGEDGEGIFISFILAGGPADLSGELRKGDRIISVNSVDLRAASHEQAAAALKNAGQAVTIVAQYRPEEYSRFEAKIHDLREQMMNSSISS
# PTPN3, P26045, sequence (P26045 505-587): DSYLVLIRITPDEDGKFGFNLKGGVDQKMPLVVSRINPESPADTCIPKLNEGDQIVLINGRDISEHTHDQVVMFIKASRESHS
# GORASP1, Q9BQQ3, sequence (Q9BQQ3 1-208): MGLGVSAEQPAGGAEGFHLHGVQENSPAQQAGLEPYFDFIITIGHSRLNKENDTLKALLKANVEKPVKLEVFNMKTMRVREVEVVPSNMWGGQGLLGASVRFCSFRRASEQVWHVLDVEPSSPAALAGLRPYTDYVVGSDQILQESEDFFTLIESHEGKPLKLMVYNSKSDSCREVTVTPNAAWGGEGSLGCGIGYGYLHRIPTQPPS
# HTRA2, O43464, sequence (O43464 355-458): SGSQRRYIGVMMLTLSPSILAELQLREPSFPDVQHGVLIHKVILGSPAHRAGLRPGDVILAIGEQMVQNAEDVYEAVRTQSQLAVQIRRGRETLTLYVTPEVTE
# GRIP2_5, Q9C0E4, sequence (Q9C0E4 544-642): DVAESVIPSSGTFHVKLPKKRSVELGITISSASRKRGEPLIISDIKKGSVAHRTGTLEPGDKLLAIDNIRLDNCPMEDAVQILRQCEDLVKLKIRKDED
Binder,"pKd (MAGI2_2, Q86UL8)","pKd (DLG1_2, Q12959)","pKd (PTPN3, P26045)","pKd (MAGI2_6, Q86UL8)","pKd (CARD11, Q9BXL7)","pKd (SNTA1, Q13424)","pKd (LNX2_3, Q8N448)","pKd (MPDZ_10, O75970)","pKd (GRIP2_5, Q9C0E4)","pKd (ARHGEF11, O15085)","pKd (SCRIB_3, Q14160)","pKd (DFNB31_3, Q9P202)","pKd (HTRA2, O43464)","pKd (DLG2_3, Q15700)","pKd (Inadl_4, Q8NI35)","pKd (GORASP1, Q9BQQ3)","pKd (GRIP1_5, Q9Y3R0)","pKd (Inadl_1, Q8NI35)","pKd (MAGI2_5, Q86UL8)","pKd (MAGI3_2, Q5TCQ9)",other results
"GSSSKEGTSV [RRBP1, Q9P2E9]",4,4.45,5.01,4.02,below the threshold,3.8,below the threshold,3.62,below the threshold,3.83,4.23,3.96,below the threshold,3.9,below the threshold,below the threshold,below the threshold,below the threshold,below the threshold,4.51,"pKd (DLG1_3, Q12959): 3.57; pKd (FRMPD2_2, Q68DX3): below the threshold; pKd (RADIL, Q96JH8): below the threshold; pKd (NHERF3_1, Q5T2W1): below the threshold; pKd (GRIP1_3, Q9Y3R0): below the threshold; pKd (GRIP2_3, Q9C0E4): below the threshold; pKd (NHERF4_2, Q86UT5): below the threshold"
"ADRDHASDQL [CTBP1, Q13363]",below the threshold,below the threshold,below the threshold,below the threshold,below the threshold,below the threshold,below the threshold,below the threshold,below the threshold,below the threshold,below the threshold,3.97,below the threshold,below the threshold,below the threshold,below the threshold,below the threshold,below the threshold,below the threshold,below the threshold,"pKd (DLG1_3, Q12959): below the threshold; pKd (FRMPD2_2, Q68DX3): below the threshold; pKd (RADIL, Q96JH8): below the threshold; pKd (NHERF3_1, Q5T2W1): 4.5; pKd (GRIP1_3, Q9Y3R0): below the threshold; pKd (GRIP2_3, Q9C0E4): below the threshold; pKd (NHERF4_2, Q86UT5): below the threshold"

# From article PMC9482650, “Quantitative fragmentomics allow affinity mapping of interactomes” (Nature Communications, 2022)
